From US5994104

Experiments:
IL-12 receptor [1] = target: IL-12 receptor
IL-12 receptor [2] = target: IL-12 receptor; remark: listed apart in the source

For “recombinant IL-12 (from UniProt P29459) (ligand)”, which proliferation of PHA blasts (MTT assay, 48 hours); lowest dose with an effect (IL-12 receptor [1]) is on record?
Its proliferation of PHA blasts (MTT assay, 48 hours); lowest dose with an effect is 10 pg/mL.

And the INF-γ production by PHA blasts (ELISA, 36 hours) (IL-12 receptor [2])?
The INF-γ production by PHA blasts (ELISA, 36 hours) was 186 ng/mL.
